Source: patent publication US20230390362A1, “USE OF TRIGONAL AGONIST HAVING ACTIVITIES TO ALL OF GLUCAGON, GLP-1, AND GIP RECEPTORS IN TREATMENT OF SEQUELAE FOLLOWING RESPIRATORY INFECTIOUS DISEASES” (HANMI PHARM. CO., LTD., priority 2020, published 2023)
Positions of bridges follow the written chain, without caps; N, C: chain ends. Non-standard residues stand in square brackets, D forms with d. No end group written: not given here. *: point of attachment. Acetyl(2-(4-imidazolyl)) = O=C(Cc1c[nH]cn1)*; Aib = CC(C)(N)C(=O)O

T1: human GIP receptor (human, UniProt P48546 22-466)
T1 sequence (looked up): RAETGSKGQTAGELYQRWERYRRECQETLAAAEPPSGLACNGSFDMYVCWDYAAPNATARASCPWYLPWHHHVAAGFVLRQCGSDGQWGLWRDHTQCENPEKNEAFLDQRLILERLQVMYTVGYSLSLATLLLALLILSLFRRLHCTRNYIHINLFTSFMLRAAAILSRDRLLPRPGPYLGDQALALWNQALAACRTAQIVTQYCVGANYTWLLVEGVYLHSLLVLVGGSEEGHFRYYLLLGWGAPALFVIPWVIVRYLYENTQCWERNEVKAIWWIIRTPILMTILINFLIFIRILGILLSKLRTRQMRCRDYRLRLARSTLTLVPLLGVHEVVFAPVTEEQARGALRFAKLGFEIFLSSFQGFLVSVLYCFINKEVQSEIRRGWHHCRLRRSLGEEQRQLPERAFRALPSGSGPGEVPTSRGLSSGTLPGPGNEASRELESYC


Assays:
Assay in all cases: cell-based or functional assay
human GIP receptor = biological target: T1, human GIP receptor
human GLP-1 receptor = human GLP-1 receptor (human, UniProt P43220 24-463)
human GCG receptor = human GCG receptor (human, UniProt P47871 26-477)
Chain of human GCG receptor (P47871 26-477): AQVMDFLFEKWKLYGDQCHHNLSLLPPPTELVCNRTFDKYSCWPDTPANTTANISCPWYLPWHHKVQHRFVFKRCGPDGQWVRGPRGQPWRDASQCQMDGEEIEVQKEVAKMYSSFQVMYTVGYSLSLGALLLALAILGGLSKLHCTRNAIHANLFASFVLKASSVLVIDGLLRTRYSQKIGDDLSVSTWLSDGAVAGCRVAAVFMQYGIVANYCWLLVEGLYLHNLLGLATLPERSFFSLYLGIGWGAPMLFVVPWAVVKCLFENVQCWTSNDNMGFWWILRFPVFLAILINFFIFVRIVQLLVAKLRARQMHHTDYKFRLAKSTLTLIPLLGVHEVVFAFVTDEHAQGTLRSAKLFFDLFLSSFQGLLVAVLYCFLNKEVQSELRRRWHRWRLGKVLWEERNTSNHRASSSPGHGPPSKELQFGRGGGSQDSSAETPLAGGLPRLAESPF

| Binder | In vitro activity relative to native peptide (%), vs. GIP (cAMP EC50) (human GIP receptor) [%] | In vitro activity relative to native peptide (%), vs. GLP-1 (cAMP EC50) (human GLP-1 receptor) [%] | In vitro activity relative to native peptide (%), vs. Glucagon (cAMP EC50) (human GCG receptor) [%] |
| --- | --- | --- | --- |
| H[Aib]QGTFTSDYSKYLDEKRQKEFVQWLLNTKC (bridge 16-20) [trigonal agonist of SEQ ID NO: 58] | 0.2 | 39.1 | 2.6 |
| HGQGTFTSDCSKQLDGQAAQEFVAWLLAGGPSSGAPPPS [trigonal agonist of SEQ ID NO: 44] | < 0.1 | 1.3 | < 0.1 |
| HGQGTFTSDCSKYMDGQAAQDFVAWLLAGGPSSGAPPPS [trigonal agonist of SEQ ID NO: 45] | < 0.1 | 6.6 | < 0.1 |
| HGQGTFTSDCSKYLDGQRAQDFVNWLLAGGPSSGAPPPS [trigonal agonist of SEQ ID NO: 48] | < 0.1 | 1.5 | < 0.1 |
| HGQGTFTSDCSKYLDEQHAQEFVAWLLAGGPSSGAPPPS [trigonal agonist of SEQ ID NO: 46] | < 0.1 | 1.4 | < 0.1 |
| HGQGTFTSDCSKYLDGQRAQEFVAWLLAGGPSSGAPPPS [trigonal agonist of SEQ ID NO: 47] | < 0.1 | 2.4 | < 0.1 |
| H[Aib]EGTFTSDYSIAMDEIHQKDFVDWLLAEC (bridge 16-20) [trigonal agonist of SEQ ID NO: 54] | 0.1 | 30.6 | 1.4 |
| {Acetyl(2-(4-imidazolyl))}-[Aib]QGTFTSDYSICMDEIHQKDFVNWLLNTK (bridge 15-19) [trigonal agonist of SEQ ID NO: 49] | 3.3 | 29.8 | < 0.1 |
| {Acetyl(2-(4-imidazolyl))}-[Aib]QGTFTSDKSSYLDERAAQDFVQWLLDGGPSSGAPPPSS [trigonal agonist of SEQ ID NO: 38] |  | 2.3 |  |
| H[Aib]QGTFTSDYSKYLCEKRQKEFVQWLLNGGPSSGAPPPSG (bridge 16-20) [trigonal agonist of SEQ ID NO: 36] | 0.2 | 37.4 | 0.39 |
| H[Aib]QGTFTSDYSKYLDEKRQKEFVNWLLAQKC (bridge 16-20) [trigonal agonist of SEQ ID NO: 34] | 0.6 | 19.1 | 0.92 |
| H[Aib]QGTFTSDYSIAMDEIHQKDFVNWLLAQC (bridge 16-20) [trigonal agonist of SEQ ID NO: 55] | 2.4 | 27.1 | 0.7 |
| H[Aib]EGTFTSDYSIAMDEIHQKDFVNWLLAQC (bridge 16-20) [trigonal agonist of SEQ ID NO: 53] | 1.3 | 161 | 8.4 |
| H[Aib]QGTFTSDVSSYLLGQQQKEFIAWLVKGC [trigonal agonist of SEQ ID NO: 4] | < 0.1 | 8.5 | < 0.1 |
| H[Aib]QGTFTSDYSKYLDEKRQKEFVQWLLNTC (bridge 16-20) [trigonal agonist of SEQ ID NO: 51] | 0.1 | 14.4 | 2 |
| H[Aib]QGTFTSDKSKYLDECAAQDFVQWLLDGGPSSGAPPPS [trigonal agonist of SEQ ID NO: 41] | < 0.1 | 34.3 | < 0.1 |
| H[Aib]QGTFTSDYSKYLDEKRAKEFVQWLLDHHPSSGQPPPSC (bridge 16-20) [trigonal agonist of SEQ ID NO: 50] | 2.7 | 67.4 | 50.5 |
| H[Aib]QGTFTSDYSIAMDEIHQKDFVNWLLNTC (bridge 16-20) [trigonal agonist of SEQ ID NO: 57] | 0.3 | 11.7 | < 0.1 |
| Y[Aib]QGTFTSDYSKYLDEKRAKEFVQWLLDHHCSSGQPPPS (bridge 16-20) [trigonal agonist of SEQ ID NO: 43] | 3.7 | 12.6 | 88.4 |
| H[Aib]QGTFTSDYSKYLDEKRQKEFVNWLLAQC (bridge 16-20) [trigonal agonist of SEQ ID NO: 56] | 0.8 | 57.9 | 4.9 |
| H[Aib]QGTFTSDYSKYLDEKRQKEFVQWLLDTC (bridge 16-20) [trigonal agonist of SEQ ID NO: 52] | 0.3 | 44.1 | 7.5 |
| H[Aib]QGTFTSDVSSYLLGQQQKEFIAWLVKGGGPSSGAPPPSC [trigonal agonist of SEQ ID NO: 5] | < 0.1 | 42.1 | < 0.1 |
| H[Aib]QGTFTSDKSKYLDERACQDFVQWLLDGGPSSGAPPPS [trigonal agonist of SEQ ID NO: 40] | < 0.1 | 75.2 | < 0.1 |
| Y[Aib]QGTFTSDYSKYLDEKRAKEFVQWLLDHHPSSGQPPPSC (bridge 16-20) [trigonal agonist of SEQ ID NO: 42] | 7.8 | 33.9 | 206 |
| H[Aib]QGTFTSDYSKYLDGQHAQCFVAWLLAGGGPSSGAPPPS [trigonal agonist of SEQ ID NO: 39] | < 0.1 | 13.9 | 0.53 |
| H[Aib]QGTFTSDVSSYLDGQAAKEFVAWLLKGC [trigonal agonist of SEQ ID NO: 6] | < 0.1 | 17 | < 0.1 |
| H[Aib]QGTFTSDYSIAMDEIHQKDFVNWLLNTKC (bridge 16-20) [trigonal agonist of SEQ ID NO: 35] | 1.3 | 7.5 | < 0.1 |
| H[Aib]QGTFTSDYSKYLDECRQKEFVQWLLNGGPSSGAPPPSG (bridge 16-20) [trigonal agonist of SEQ ID NO: 37] | 2.2 | 236 | 6.21 |
| H[Aib]QGTFTSDVSSYLDGQAAKEFIAWLVKGC [trigonal agonist of SEQ ID NO: 1] | < 0.1 | 3.2 | < 0.1 |
